Data from patent publication US20250327097A1, “ORGANISMS PRODUCING LESS CROTONIC ACID” (Global Bioenergies, priority 2021, published 2025).

Tested on: 3-methylcrotonic acid
Format: biochemical, Yersinia frederiksenii
Set-up: key: “+” representing a low increase in activity; “++++” representing a high increase in activity

B1: I283T-P284D-i284aP-N287P-S322T-N388M-E421V-C430N-L432F-L434W-S436N-H461T-G462R-i462aA-A463T (protein)
chain: MFLKSLREQINLLKRQGDLRIINRPVDSYLEAAAIIRRSTETKAPVPLMTNIKGYPGCSIVGGLAALSSNPEYPLSRVAMSLGLSTTASAQSIVQYLIDGLKKTPYLPVEIDSNSAPCKQNILRGEDASLAHFPIPQVHQHDGNRYVNTWGVFIVESPDGQWCNWSIQRVQYLNDRQMIALVFPSQHISDIWEEWVKIGKPMPYALVQGCEPIVPYIAGLPLLERNVNEAEYIGALYGKGIEVVKCETHDLRVPASSEVVIEGYFAITREGVEGPFGEFAGYTDNEPSLQPILSITAISWQDDPIWPVVAEGKPVDEYHTCTGIGDAAAIQNVLLTANLPVSFVWVPLYSACHLMIVSINRHWRQTHPDLTSEQLTKKVGDVIHQTRMSIKLPKIVVLDDDVDPADTESLLWALATRIHPVRKRYFYESNIFPWLNCYSEEERHNRKGKRVIIDALLPENTRTISSFDYAYPDDIKQRVLMHWETDFSHD
Activity relative to WT: ++++

B2: V272I-I283T-P284D-i284aP-N287P-S322T-N388M-E421V-C430N-L432F-L434W-S436N-H461T-dG462-A463T (protein)
chain: MFLKSLREQINLLKRQGDLRIINRPVDSYLEAAAIIRRSTETKAPVPLMTNIKGYPGCSIVGGLAALSSNPEYPLSRVAMSLGLSTTASAQSIVQYLIDGLKKTPYLPVEIDSNSAPCKQNILRGEDASLAHFPIPQVHQHDGNRYVNTWGVFIVESPDGQWCNWSIQRVQYLNDRQMIALVFPSQHISDIWEEWVKIGKPMPYALVQGCEPIVPYIAGLPLLERNVNEAEYIGALYGKGIEVVKCETHDLRVPASSEVVIEGYFAITREGIEGPFGEFAGYTDNEPSLQPILSITAISWQDDPIWPVVAEGKPVDEYHTCTGIGDAAAIQNVLLTANLPVSFVWVPLYSACHLMIVSINRHWRQTHPDLTSEQLTKKVGDVIHQTRMSIKLPKIVVLDDDVDPADTESLLWALATRIHPVRKRYFYESNIFPWLNCYSEEERHNRKGKRVIIDALLPENTGTISSFDYAYPDDIKQRVLMHWETDFSHD
Activity relative to WT: ++++

B3: I283T-P284D-i284aP-N287P-S322T-N388M-E421V-C430N-L432F-L434W-S436N-C437F-H461T-G462R-i462aA-A463T (protein)
chain: MFLKSLREQINLLKRQGDLRIINRPVDSYLEAAAIIRRSTETKAPVPLMTNIKGYPGCSIVGGLAALSSNPEYPLSRVAMSLGLSTTASAQSIVQYLIDGLKKTPYLPVEIDSNSAPCKQNILRGEDASLAHFPIPQVHQHDGNRYVNTWGVFIVESPDGQWCNWSIQRVQYLNDRQMIALVFPSQHISDIWEEWVKIGKPMPYALVQGCEPIVPYIAGLPLLERNVNEAEYIGALYGKGIEVVKCETHDLRVPASSEVVIEGYFAITREGVEGPFGEFAGYTDNEPSLQPILSITAISWQDDPIWPVVAEGKPVDEYHTCTGIGDAAAIQNVLLTANLPVSFVWVPLYSACHLMIVSINRHWRQTHPDLTSEQLTKKVGDVIHQTRMSIKLPKIVVLDDDVDPADTESLLWALATRIHPVRKRYFYESNIFPWLNFYSEEERHNRKGKRVIIDALLPENTRTISSFDYAYPDDIKQRVLMHWETDFSHD
Activity relative to WT: ++++

B4: I283T-P284D-i284aP-N287P-S322T-N388M-E421V-C430N-L432F-L434W-S436N-G448E-H461T-G462R-i462aA-A463T (protein)
chain: MFLKSLREQINLLKRQGDLRIINRPVDSYLEAAAIIRRSTETKAPVPLMTNIKGYPGCSIVGGLAALSSNPEYPLSRVAMSLGLSTTASAQSIVQYLIDGLKKTPYLPVEIDSNSAPCKQNILRGEDASLAHFPIPQVHQHDGNRYVNTWGVFIVESPDGQWCNWSIQRVQYLNDRQMIALVFPSQHISDIWEEWVKIGKPMPYALVQGCEPIVPYIAGLPLLERNVNEAEYIGALYGKGIEVVKCETHDLRVPASSEVVIEGYFAITREGVEGPFGEFAGYTDNEPSLQPILSITAISWQDDPIWPVVAEGKPVDEYHTCTGIGDAAAIQNVLLTANLPVSFVWVPLYSACHLMIVSINRHWRQTHPDLTSEQLTKKVGDVIHQTRMSIKLPKIVVLDDDVDPADTESLLWALATRIHPVRKRYFYESNIFPWLNCYSEEERHNRKEKRVIIDALLPENTRTISSFDYAYPDDIKQRVLMHWETDFSHD
Activity relative to WT: ++++

B5: V272L-I283T-P284D-i284aP-N287P-S322T-N388M-E421V-C430N-L432F-L434W-S436N-H461T-dG462-A463T (protein)
chain: MFLKSLREQINLLKRQGDLRIINRPVDSYLEAAAIIRRSTETKAPVPLMTNIKGYPGCSIVGGLAALSSNPEYPLSRVAMSLGLSTTASAQSIVQYLIDGLKKTPYLPVEIDSNSAPCKQNILRGEDASLAHFPIPQVHQHDGNRYVNTWGVFIVESPDGQWCNWSIQRVQYLNDRQMIALVFPSQHISDIWEEWVKIGKPMPYALVQGCEPIVPYIAGLPLLERNVNEAEYIGALYGKGIEVVKCETHDLRVPASSEVVIEGYFAITREGLEGPFGEFAGYTDNEPSLQPILSITAISWQDDPIWPVVAEGKPVDEYHTCTGIGDAAAIQNVLLTANLPVSFVWVPLYSACHLMIVSINRHWRQTHPDLTSEQLTKKVGDVIHQTRMSIKLPKIVVLDDDVDPADTESLLWALATRIHPVRKRYFYESNIFPWLNCYSEEERHNRKGKRVIIDALLPENTGTISSFDYAYPDDIKQRVLMHWETDFSHD
Activity relative to WT: ++++

B6: R15L-I283T-P284D-i284aP-N287P-S322T-K378M-N388M-E421V-C430N-L432F-L434W-S436N-H461T-dG462-A463T (protein)
chain: MFLKSLREQINLLKLQGDLRIINRPVDSYLEAAAIIRRSTETKAPVPLMTNIKGYPGCSIVGGLAALSSNPEYPLSRVAMSLGLSTTASAQSIVQYLIDGLKKTPYLPVEIDSNSAPCKQNILRGEDASLAHFPIPQVHQHDGNRYVNTWGVFIVESPDGQWCNWSIQRVQYLNDRQMIALVFPSQHISDIWEEWVKIGKPMPYALVQGCEPIVPYIAGLPLLERNVNEAEYIGALYGKGIEVVKCETHDLRVPASSEVVIEGYFAITREGVEGPFGEFAGYTDNEPSLQPILSITAISWQDDPIWPVVAEGKPVDEYHTCTGIGDAAAIQNVLLTANLPVSFVWVPLYSACHLMIVSINRHWRQTHPDLTSEQLTKMVGDVIHQTRMSIKLPKIVVLDDDVDPADTESLLWALATRIHPVRKRYFYESNIFPWLNCYSEEERHNRKGKRVIIDALLPENTGTISSFDYAYPDDIKQRVLMHWETDFSHD
Activity relative to WT: ++++

B7: V272R-I283T-P284D-i284aP-N287P-S322T-N388M-E421V-C430N-L432F-L434W-S436N-C437F-H461T-dG462-A463T (protein)
chain: MFLKSLREQINLLKRQGDLRIINRPVDSYLEAAAIIRRSTETKAPVPLMTNIKGYPGCSIVGGLAALSSNPEYPLSRVAMSLGLSTTASAQSIVQYLIDGLKKTPYLPVEIDSNSAPCKQNILRGEDASLAHFPIPQVHQHDGNRYVNTWGVFIVESPDGQWCNWSIQRVQYLNDRQMIALVFPSQHISDIWEEWVKIGKPMPYALVQGCEPIVPYIAGLPLLERNVNEAEYIGALYGKGIEVVKCETHDLRVPASSEVVIEGYFAITREGREGPFGEFAGYTDNEPSLQPILSITAISWQDDPIWPVVAEGKPVDEYHTCTGIGDAAAIQNVLLTANLPVSFVWVPLYSACHLMIVSINRHWRQTHPDLTSEQLTKKVGDVIHQTRMSIKLPKIVVLDDDVDPADTESLLWALATRIHPVRKRYFYESNIFPWLNFYSEEERHNRKGKRVIIDALLPENTGTISSFDYAYPDDIKQRVLMHWETDFSHD
Activity relative to WT: ++++

B8: V272R-I283T-P284D-i284aP-N287P-S322T-N388M-E421V-C430N-L432F-L434W-S436N-H461T-dG462-A463T (protein)
chain: MFLKSLREQINLLKRQGDLRIINRPVDSYLEAAAIIRRSTETKAPVPLMTNIKGYPGCSIVGGLAALSSNPEYPLSRVAMSLGLSTTASAQSIVQYLIDGLKKTPYLPVEIDSNSAPCKQNILRGEDASLAHFPIPQVHQHDGNRYVNTWGVFIVESPDGQWCNWSIQRVQYLNDRQMIALVFPSQHISDIWEEWVKIGKPMPYALVQGCEPIVPYIAGLPLLERNVNEAEYIGALYGKGIEVVKCETHDLRVPASSEVVIEGYFAITREGREGPFGEFAGYTDNEPSLQPILSITAISWQDDPIWPVVAEGKPVDEYHTCTGIGDAAAIQNVLLTANLPVSFVWVPLYSACHLMIVSINRHWRQTHPDLTSEQLTKKVGDVIHQTRMSIKLPKIVVLDDDVDPADTESLLWALATRIHPVRKRYFYESNIFPWLNCYSEEERHNRKGKRVIIDALLPENTGTISSFDYAYPDDIKQRVLMHWETDFSHD
Activity relative to WT: ++++

B9: I283T-P284D-i284aP-N287P-S322T-N388M-E421V-C430N-L432F-L434W-S436N-C437F-G448E-H461T-G462R-i462aA-A463T (protein)
chain: MFLKSLREQINLLKRQGDLRIINRPVDSYLEAAAIIRRSTETKAPVPLMTNIKGYPGCSIVGGLAALSSNPEYPLSRVAMSLGLSTTASAQSIVQYLIDGLKKTPYLPVEIDSNSAPCKQNILRGEDASLAHFPIPQVHQHDGNRYVNTWGVFIVESPDGQWCNWSIQRVQYLNDRQMIALVFPSQHISDIWEEWVKIGKPMPYALVQGCEPIVPYIAGLPLLERNVNEAEYIGALYGKGIEVVKCETHDLRVPASSEVVIEGYFAITREGVEGPFGEFAGYTDNEPSLQPILSITAISWQDDPIWPVVAEGKPVDEYHTCTGIGDAAAIQNVLLTANLPVSFVWVPLYSACHLMIVSINRHWRQTHPDLTSEQLTKKVGDVIHQTRMSIKLPKIVVLDDDVDPADTESLLWALATRIHPVRKRYFYESNIFPWLNFYSEEERHNRKEKRVIIDALLPENTRTISSFDYAYPDDIKQRVLMHWETDFSHD
Activity relative to WT: ++++

B10: I283T-P284D-i284aP-N287P-S322T-N388M-E421V-C430N-L432F-L434W-S436N-C437F-G448E-H461T-dG462-A463T (protein)
chain: MFLKSLREQINLLKRQGDLRIINRPVDSYLEAAAIIRRSTETKAPVPLMTNIKGYPGCSIVGGLAALSSNPEYPLSRVAMSLGLSTTASAQSIVQYLIDGLKKTPYLPVEIDSNSAPCKQNILRGEDASLAHFPIPQVHQHDGNRYVNTWGVFIVESPDGQWCNWSIQRVQYLNDRQMIALVFPSQHISDIWEEWVKIGKPMPYALVQGCEPIVPYIAGLPLLERNVNEAEYIGALYGKGIEVVKCETHDLRVPASSEVVIEGYFAITREGVEGPFGEFAGYTDNEPSLQPILSITAISWQDDPIWPVVAEGKPVDEYHTCTGIGDAAAIQNVLLTANLPVSFVWVPLYSACHLMIVSINRHWRQTHPDLTSEQLTKKVGDVIHQTRMSIKLPKIVVLDDDVDPADTESLLWALATRIHPVRKRYFYESNIFPWLNFYSEEERHNRKEKRVIIDALLPENTGTISSFDYAYPDDIKQRVLMHWETDFSHD
Activity relative to WT: ++++
